{
  "source": "patent US20260049134A1",
  "about": "(UNIVERSITY OF FLORIDA RESEARCH FOUNDATION, published 2026)",
  "assay_in_all_cases": "ELISA on coated protein",
  "key": {"SLAMF7": {"biological_target": "T1, SLAMF7", "T1 construct": "also called SLAMF7-StrepTag; not shown: StrepTag and any linker", "T1 chain": "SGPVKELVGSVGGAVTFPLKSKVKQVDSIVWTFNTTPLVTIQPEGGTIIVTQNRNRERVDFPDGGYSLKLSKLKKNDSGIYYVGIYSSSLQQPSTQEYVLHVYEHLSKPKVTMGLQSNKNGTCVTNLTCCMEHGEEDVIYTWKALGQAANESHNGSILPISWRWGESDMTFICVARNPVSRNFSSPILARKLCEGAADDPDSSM", "method": "(§1) Recombinant purified ECDs (50-150 ng) of each putative target protein were coated, incubated with 150 ng of the indicated primary antibody, and binding was detected using a peroxidase-conjugated anti-human Fab secondary antibody. Heatmap represents averages of technical triplicates. (8B) Target validation via siRNA knockdown. H929 cells were transfected with siRNA pools targeting the putative antibody targets ICAM1, CADM1, and PTPRG. Cells were then subjected to cognate IgG binding analysis via flow cytometry. (NT, non-targeting siRNA).\n(§2) ELISA ELISA was conducted as described previously. Briefly, 50-150 ng of antigen was coated overnight in half-area 96-well plates at 4° C., blocked with 3% BSA at 37° C. for 1 h, and 150 ng of chimeric rabbit/human IgG1 was added, incubating for 2 h at 37° C. […] After incubating at 37° C. for 15 min-1 h (depending on intensity of controls), data were acquired using a SpectraMax M5 plate reader (Molecular Devices)."}, "IL13RA1": {"biological_target": "T2, IL13RA1", "T2 construct": "also called IL13RA1-Fc-His (R&D Systems)", "T2 chain": "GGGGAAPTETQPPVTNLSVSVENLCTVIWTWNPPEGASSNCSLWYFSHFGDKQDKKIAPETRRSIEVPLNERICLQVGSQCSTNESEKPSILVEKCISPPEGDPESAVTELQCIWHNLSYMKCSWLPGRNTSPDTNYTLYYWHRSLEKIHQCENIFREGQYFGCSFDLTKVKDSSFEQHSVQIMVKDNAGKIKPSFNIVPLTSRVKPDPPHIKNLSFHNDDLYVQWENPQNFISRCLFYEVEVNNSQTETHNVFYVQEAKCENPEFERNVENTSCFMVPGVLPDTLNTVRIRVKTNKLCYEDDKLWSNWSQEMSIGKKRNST", "method": "as §1, §2"}, "DCC": {"biological_target": "T3, DCC", "T3 construct": "also called DCC-His (R&D Systems)", "T3 chain": "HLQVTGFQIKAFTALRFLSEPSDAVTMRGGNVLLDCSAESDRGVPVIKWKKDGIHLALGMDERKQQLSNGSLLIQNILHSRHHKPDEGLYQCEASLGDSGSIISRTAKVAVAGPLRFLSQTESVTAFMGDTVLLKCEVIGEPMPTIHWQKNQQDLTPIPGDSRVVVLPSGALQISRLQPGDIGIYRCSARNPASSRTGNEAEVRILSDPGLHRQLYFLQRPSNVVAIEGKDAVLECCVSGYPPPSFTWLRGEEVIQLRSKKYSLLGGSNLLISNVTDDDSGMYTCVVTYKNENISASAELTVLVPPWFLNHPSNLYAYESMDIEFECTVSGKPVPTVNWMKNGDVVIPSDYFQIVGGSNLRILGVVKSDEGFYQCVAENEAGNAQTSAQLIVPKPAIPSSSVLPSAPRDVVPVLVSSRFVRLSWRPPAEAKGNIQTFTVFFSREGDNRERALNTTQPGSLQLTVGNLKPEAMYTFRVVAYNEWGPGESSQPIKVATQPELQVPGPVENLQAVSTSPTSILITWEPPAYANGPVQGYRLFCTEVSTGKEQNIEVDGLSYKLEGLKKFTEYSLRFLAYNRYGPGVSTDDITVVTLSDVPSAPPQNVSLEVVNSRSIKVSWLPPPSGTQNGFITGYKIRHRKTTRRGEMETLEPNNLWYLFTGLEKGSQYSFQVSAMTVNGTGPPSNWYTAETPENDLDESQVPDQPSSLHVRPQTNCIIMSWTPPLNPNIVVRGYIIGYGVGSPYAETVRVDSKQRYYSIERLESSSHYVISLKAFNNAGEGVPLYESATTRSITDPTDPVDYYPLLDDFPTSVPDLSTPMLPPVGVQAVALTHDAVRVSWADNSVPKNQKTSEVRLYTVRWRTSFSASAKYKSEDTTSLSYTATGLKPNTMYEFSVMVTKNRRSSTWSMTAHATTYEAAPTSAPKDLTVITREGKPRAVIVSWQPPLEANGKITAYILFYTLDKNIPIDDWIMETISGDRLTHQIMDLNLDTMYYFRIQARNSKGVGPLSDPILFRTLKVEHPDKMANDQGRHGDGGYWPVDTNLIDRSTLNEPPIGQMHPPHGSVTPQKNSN", "method": "as §1, §2"}, "HHLA2": {"biological_target": "T4, HHLA2", "T4 construct": "also called HHLA2-Fc (R&D Systems); B7-H7; not shown: Fc part and any linker", "T4 chain": "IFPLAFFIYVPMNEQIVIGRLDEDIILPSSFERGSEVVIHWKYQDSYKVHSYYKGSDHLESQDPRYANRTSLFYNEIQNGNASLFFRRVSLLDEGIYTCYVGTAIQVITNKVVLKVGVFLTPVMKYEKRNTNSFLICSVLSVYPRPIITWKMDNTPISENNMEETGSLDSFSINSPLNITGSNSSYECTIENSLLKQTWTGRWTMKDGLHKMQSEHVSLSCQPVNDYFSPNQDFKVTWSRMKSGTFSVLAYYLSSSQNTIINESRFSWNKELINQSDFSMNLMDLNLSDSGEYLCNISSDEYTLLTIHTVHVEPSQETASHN", "method": "as §1, §2"}, "ANXA1": {"biological_target": "T5, ANXA1", "T5 construct": "also called ANXA1-His (R&D Systems); not shown: His tag", "T5 chain": "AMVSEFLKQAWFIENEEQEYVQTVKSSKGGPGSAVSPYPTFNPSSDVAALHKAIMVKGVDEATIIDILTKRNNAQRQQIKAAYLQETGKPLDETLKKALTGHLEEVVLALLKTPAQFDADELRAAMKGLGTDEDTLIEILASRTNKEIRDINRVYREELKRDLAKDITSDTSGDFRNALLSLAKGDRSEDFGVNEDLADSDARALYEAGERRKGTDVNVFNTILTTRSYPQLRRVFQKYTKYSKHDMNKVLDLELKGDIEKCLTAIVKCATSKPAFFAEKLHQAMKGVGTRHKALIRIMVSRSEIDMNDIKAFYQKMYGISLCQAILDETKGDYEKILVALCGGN", "method": "as §1, §2"}, "ICAM1-Fc (R&D Systems)": {"biological_target": "T6, ICAM1-Fc (R&D Systems) (human, UniProt P05362 28-480)", "T6 construct": "Bought; also called ICAM-1/CD54; not shown: Fc of the bought fusion protein", "T6 sequence (P05362 28-480)": "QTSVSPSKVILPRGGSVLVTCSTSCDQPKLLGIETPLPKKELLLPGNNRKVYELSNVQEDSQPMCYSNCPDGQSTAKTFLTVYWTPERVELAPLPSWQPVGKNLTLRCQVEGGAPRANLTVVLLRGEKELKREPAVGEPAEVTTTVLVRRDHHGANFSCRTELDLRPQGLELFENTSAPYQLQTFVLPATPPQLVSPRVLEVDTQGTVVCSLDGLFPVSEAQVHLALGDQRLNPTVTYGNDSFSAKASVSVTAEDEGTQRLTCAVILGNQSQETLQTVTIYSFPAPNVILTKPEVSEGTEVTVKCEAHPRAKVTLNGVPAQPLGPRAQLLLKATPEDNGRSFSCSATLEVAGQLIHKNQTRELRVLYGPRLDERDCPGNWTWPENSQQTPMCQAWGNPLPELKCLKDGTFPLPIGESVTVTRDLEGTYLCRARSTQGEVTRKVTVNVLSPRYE", "method": "as §1, §2"}},
  "data": [
    {"binder": "HW-42 chimeric rabbit-human IgG1 LA/LA/PG (antibody, V domains shown, Fc-silenced (L234A/L235A/P329G) IgG1, lambda; Alexa Fluor 647-labeled in single-step flow cytometry; Cluster C-1) VH: QSVKESEGGLFKPADTLTLTCTVSGFSLSSNEISWVRQAPGEGLEYIGIIDTGGRAYYAVWARSRSTITRNTNLNTVTLKMTSLTAADTATYFCARGGVDTEWYAFSSWGPGTLVTVPS VL: SFVLTQPASVQVNLGQTVSLTCTADTLSRRYASWYQQKPGQAPVLLIFRDTSRPSGVPDRFSGSSSGDTATLTISGAQAGDEADYYCATSDGSGSNYQYVFGGGTQLTVTG", "values": [
      {"measurement": "binding result", "setting": "SLAMF7", "result": "no binding (tested: 150 ng IgG1 per well)"},
      {"measurement": "binding result", "setting": "IL13RA1", "result": "no binding (tested: 150 ng IgG1 per well)"},
      {"measurement": "binding result", "setting": "DCC", "result": "no binding (tested: 150 ng IgG1 per well)"},
      {"measurement": "binding result", "setting": "HHLA2", "result": "no binding (tested: 150 ng IgG1 per well)"},
      {"measurement": "binding result", "setting": "ANXA1", "result": "no binding (tested: 150 ng IgG1 per well)"}
    ]},
    {"binder": "HW-70 chimeric rabbit-human IgG1 LA/LA/PG (antibody, V domains shown, Fc-silenced (L234A/L235A/P329G) IgG1, lambda; Alexa Fluor 647-labeled in single-step flow cytometry; Cluster C-1) VH: QSLEESGGRLVTPGTPLTLTCTVSGFSLSSNAMSWVRQAPGKGLEWIGTIDGYGYTYYASWAKGRFTVSKTSTTVDLKITSPTTEDTATYFCAREIYLGSNFWGPGTLVTISS VL: SFVLTQPASVQVNLGQTVSLTCTADTLSRRYASWYQQKPGQAPVLLIYRDTSRPSGVPDRFSGSSSGNTATLTISGAQAGDEADYYCATADGSGSSYQFVFGGGTQLTVTG", "values": [
      {"measurement": "binding result", "setting": "SLAMF7", "result": "no binding (tested: 150 ng IgG1 per well)"},
      {"measurement": "binding result", "setting": "IL13RA1", "result": "no binding (tested: 150 ng IgG1 per well)"},
      {"measurement": "binding result", "setting": "DCC", "result": "no binding (tested: 150 ng IgG1 per well)"},
      {"measurement": "binding result", "setting": "HHLA2", "result": "no binding (tested: 150 ng IgG1 per well)"},
      {"measurement": "binding result", "setting": "ANXA1", "result": "no binding (tested: 150 ng IgG1 per well)"}
    ]},
    {"binder": "HW-25 chimeric rabbit-human IgG1 LA/LA/PG (antibody, V domains shown, Fc-silenced (L234A/L235A/P329G) IgG1, lambda; Alexa Fluor 647-labeled in single-step flow cytometry; Cluster C-1) VH: QSLEESGGRLVTPGTPLTLTCTVSGFSLSSYAMGWVRQAPGKGLEWIGIIDSRGSTYYATWAKGRFTISKTSTTVDLKITSPTTEDTATYFCAREDSYYYDSFNLWGPGTLVTVSS VL: SFVLTQPASVQVNLGQTVSLTCTADTLSRRYASWYQQKPGQAPVLLIYRDTSRPSGVPDRFSGSSSGNTATLTISGAQAGDEADYYCATSDGSGSSYQCVFGGGTQLTVTG", "values": [
      {"measurement": "binding result", "setting": "SLAMF7", "result": "no binding (tested: 150 ng IgG1 per well)"},
      {"measurement": "binding result", "setting": "IL13RA1", "result": "no binding (tested: 150 ng IgG1 per well)"},
      {"measurement": "binding result", "setting": "DCC", "result": "no binding (tested: 150 ng IgG1 per well)"},
      {"measurement": "binding result", "setting": "HHLA2", "result": "no binding (tested: 150 ng IgG1 per well)"},
      {"measurement": "binding result", "setting": "ANXA1", "result": "no binding (tested: 150 ng IgG1 per well)"}
    ]},
    {"binder": "HW-1 chimeric rabbit-human IgG1 LA/LA/PG (antibody, V domains shown, Fc-silenced (L234A/L235A/P329G) IgG1, lambda; Alexa Fluor 647-labeled in single-step flow cytometry; Prototype of cluster C-1) VH: QSLEESGGGLFKPTDTLTLTCTASGFSLGSSYAISWVRQAPGKELEWIGTIDSGRAYYARWAKSRSTITRNTNENTVTLKMTSLTAADTATYFCARDLIPTYSQDIWGPGTLVTISS VL: SFVLTQPASVQVNLGQTVSLTCTADTLSRRYASWYQQKPGQAPVLLIYRDTSRPSGVPDRFSGSSSGNTATLTISGAQAGDEADYYCATSDGSGNSYQYVFGGGTQLTVTS", "values": [
      {"measurement": "binding result", "setting": "SLAMF7", "result": "no binding (tested: 150 ng IgG1 per well)"},
      {"measurement": "binding result", "setting": "IL13RA1", "result": "no binding (tested: 150 ng IgG1 per well)"},
      {"measurement": "binding result", "setting": "ICAM1-Fc (R&D Systems)", "result": "no binding (tested: 150 ng IgG1 per well)"},
      {"measurement": "binding result", "setting": "DCC", "result": "no binding (tested: 150 ng IgG1 per well)"},
      {"measurement": "binding result", "setting": "HHLA2", "result": "no binding (tested: 150 ng IgG1 per well)"},
      {"measurement": "binding result", "setting": "ANXA1", "result": "no binding (tested: 150 ng IgG1 per well)"}
    ]},
    {"binder": "HW-113 chimeric rabbit-human IgG1 LA/LA/PG (antibody, V domains shown, Fc-silenced (L234A/L235A/P329G) IgG1, lambda; Alexa Fluor 647-labeled in single-step flow cytometry) VH: QKQLVESGGGLVQPGGSLTLTCTVSGFSLNKYYMGWFRQAPGKGLEWIGVISRSGDTYYSSWAKGRFTISKASTTVDLRITSPTTEDTATYFCARDASSPGFHGDRLDLWGQGTLVTVSS VL: SFVLTQPASVQVNLGQTVSLTCTADTLSRSYASWYQQKPGQAPVLLIYRDTSRPSGVPDRFSGSSSGNTATLTISGAQAGDEADYYCATSDGIGSNYLWVFGGGTQLTVTG", "values": [
      {"measurement": "binding result", "setting": "SLAMF7", "result": "no binding (tested: 150 ng IgG1 per well)"},
      {"measurement": "binding result", "setting": "IL13RA1", "result": "no binding (tested: 150 ng IgG1 per well)"},
      {"measurement": "binding result", "setting": "DCC", "result": "no binding (tested: 150 ng IgG1 per well)"},
      {"measurement": "binding result", "setting": "HHLA2", "result": "no binding (tested: 150 ng IgG1 per well)"},
      {"measurement": "binding result", "setting": "ANXA1", "result": "no binding (tested: 150 ng IgG1 per well)"}
    ]}
  ]
}
